We go through 167 variants from the Human Domainome abundance scans (Beltran et al. 2025).

First the molecules themselves.
B1: Histidine--tRNA ligase, cytoplasmic, residues 8 to 45; numbered along this chain, P12081 (parent)
chain: EELVKLQGERVRGLKQQKASAELIEEEVAKLLKLKAQL
B2: Poly(rC)-binding protein 1, residues 278 to 350; numbered along this chain, Q15365 (parent)
chain: TQTTHELTIPNNLIGCIIGRQGANINEIRQMSGAQIKIANPVEGSSGRQVTITGSAASISLAQYLINARLSSE

± gives the uncertainty stated by the source.

The variants in one data set derive from B1. Description: abundance fitness (aPCA) (normalised: wild type 0, dead -1); higher = more abundant; growth selection in yeast, the domain comes from the species named. The settings on record: Homo sapiens.
As to K30M, the abundance fitness is -0.234 ± 0.13. On to K30W, for which the abundance fitness was -0.639 ± 0.12. For K30C, the abundance fitness is -0.411 ± 0.08.

As for L38R, the abundance fitness is -0.067 ± 0.12. Turning to L38H, the abundance fitness is -0.012 ± 0.15. With L38F, the abundance fitness was -0.526 ± 0.12.

In the case of L38W, the abundance fitness is -0.154 ± 0.2. Take L38K: the abundance fitness came to 0.14 ± 0.25. For L38T, the abundance fitness is 0.034 ± 0.094. Still for that read-out and setting: for L38I the value was -0.389 ± 0.11. Regarding L38Q, the abundance fitness was 0.166 ± 0.1.

In the case of L38E, the abundance fitness turned out to be 0.204 ± 0.11.

Take L38A: the abundance fitness came out at 0.15 ± 0.14. Consider L38S, for which the abundance fitness came out at 0.009 ± 0.093. As for L38D, the abundance fitness worked out at 0.003 ± 0.26. L38V: the abundance fitness is -0.209 ± 0.18.

L38P: the abundance fitness is -0.026 ± 0.08. For the variant L38M, the abundance fitness turned out to be 0.193 ± 0.13. Take L38N: the abundance fitness was -0.05 ± 0.19. For the variant L23R, the abundance fitness was -0.001 ± 0.073.

Consider L23T, for which the abundance fitness is 0.071 ± 0.082. The same measure, in the same setting: for L23K the value was 0.045 ± 0.091; for L23S, -0.266 ± 0.085. As to L23M, the abundance fitness was found to be 0.243 ± 0.13. As to L23Q, the abundance fitness amounted to 0.262 ± 0.1. L23V: the abundance fitness stood at 0.2 ± 0.082. On to L23H, for which the abundance fitness was -0.075 ± 0.11. Still for that read-out and setting: the figure for L23P is -0.004 ± 0.086; for L23Y it is -0.358 ± 0.091; for L23D it is -0.072 ± 0.12. As to L23G, the abundance fitness is -0.143 ± 0.083. On the same count and under the same terms, for L23N the value was -0.04 ± 0.11.

On to L23A, for which the abundance fitness was -0.037 ± 0.073. For the variant L23I, the abundance fitness worked out at 0.188 ± 0.12. L32M: the abundance fitness was 0.206 ± 0.087.

For L32H, the abundance fitness is 0.08 ± 0.087.

Turning to L32G, the abundance fitness is 0.121 ± 0.091. Take L32D: the abundance fitness worked out at 0.174 ± 0.1.

Turning to L32A, the abundance fitness came to 0.227 ± 0.089.

Regarding L32V, the abundance fitness was -0.076 ± 0.083. In the case of L32S, the abundance fitness amounted to 0.112 ± 0.09.

In the case of L32I, the abundance fitness was -0.093 ± 0.1. Take L32Q: the abundance fitness was 0.201 ± 0.095. L32C: the abundance fitness stood at 0.116 ± 0.096. For the variant L32K, the abundance fitness worked out at 0.105 ± 0.11. With L32T, the abundance fitness worked out at 0.117 ± 0.13. For the variant L32F, the abundance fitness was -0.289 ± 0.076.

On to L32W, for which the abundance fitness is -0.098 ± 0.1.

Regarding L32N, the abundance fitness came to 0.247 ± 0.091. The same measure, in the same setting: the figure for L32P is 0.098 ± 0.11; for L32R it is 0.096 ± 0.079. On the same count and under the same terms, for A29C the value was -0.415 ± 0.093; for A29N, -0.183 ± 0.081; for A29K, -0.299 ± 0.17. In the case of A29Q, the abundance fitness came out at 0.07 ± 0.11. For the variant A29P, the abundance fitness is -0.37 ± 0.09. With A29V, the abundance fitness was -0.277 ± 0.084. On to A29M, for which the abundance fitness was -0.069 ± 0.11. The same measure, in the same setting: the figure for A29F is -0.8 ± 0.11; for A29I it is -0.618 ± 0.11; for A29W it is -0.804 ± 0.17.

In the case of A29L, the abundance fitness was -0.462 ± 0.083. For A29R, the abundance fitness was -0.189 ± 0.076. Turning to A29T, the abundance fitness is -0.26 ± 0.1.

With A29G, the abundance fitness was -0.092 ± 0.09. Regarding A29H, the abundance fitness is -0.265 ± 0.093. Take A29D: the abundance fitness is 0.106 ± 0.11. For E25S, the abundance fitness stood at 0.032 ± 0.073.

Consider E25I, for which the abundance fitness was -0.621 ± 0.13. With E25C, the abundance fitness was -0.331 ± 0.16.

With E25A, the abundance fitness is 0.128 ± 0.091.

As to E25P, the abundance fitness was -0.208 ± 0.095. E25T: the abundance fitness is -0.009 ± 0.081. Turning to E25N, the abundance fitness was determined as 0.055 ± 0.13. With E25R, the abundance fitness is -0.064 ± 0.069.

Take E25M: the abundance fitness was -0.184 ± 0.11. As to E25H, the abundance fitness came out at 0 ± 0.09. For E25L, the abundance fitness was -0.484 ± 0.098. On the same count and under the same terms, the figure for E25W is -0.586 ± 0.11; for E25D it is 0.012 ± 0.097; for E25G it is -0.052 ± 0.077. E25K: the abundance fitness was -0.001 ± 0.11.

On to E25Q, for which the abundance fitness is 0.071 ± 0.097.

E22M: the abundance fitness is -0.046 ± 0.094.

For the variant E22V, the abundance fitness worked out at 0.052 ± 0.1.

In the case of E22Y, the abundance fitness was -0.288 ± 0.11. Turning to E22K, the abundance fitness is 0.075 ± 0.12. Take E22N: the abundance fitness was 0.055 ± 0.12.

For E22H, the abundance fitness was -0.156 ± 0.14. In the case of E22I, the abundance fitness was -0.156 ± 0.1. Take E22P: the abundance fitness was -0.007 ± 0.1. As for E22W, the abundance fitness is -0.577 ± 0.16.

Consider E22L, for which the abundance fitness was -0.149 ± 0.081. On the same count and under the same terms, for E22R the value was -0.023 ± 0.079; for E22T, 0.091 ± 0.08; for E22Q, 0.13 ± 0.1.

For E22G, the abundance fitness is -0.03 ± 0.096.

Variants of B2 are the subject of a further data set. The description is as above. Conditions: Homo sapiens.
On to I28S, for which the abundance fitness is -1.04 ± 0.18. On the same count and under the same terms, for I28H the value was -0.956 ± 0.28; for I28V, -0.257 ± 0.038. As to Q30T, the abundance fitness worked out at 0.064 ± 0.074. Still for that read-out and setting: the figure for T3G is 0.167 ± 0.033. For T3N, the abundance fitness came to 0.113 ± 0.095. For A39G, the abundance fitness amounted to 0.061 ± 0.034. As to A39S, the abundance fitness came out at 0.03 ± 0.049. The same measure, in the same setting: for A23D the value was -0.079 ± 0.12; for R20W, -0.188 ± 0.053. Consider S71I, for which the abundance fitness is -0.434 ± 0.24. As to S71M, the abundance fitness was 0.105 ± 0.074. With S72G, the abundance fitness was -0.031 ± 0.071.

On to N67R, for which the abundance fitness was -0.147 ± 0.057. On to N67F, for which the abundance fitness came to 0.034 ± 0.18. In the case of A56Q, the abundance fitness amounted to 0.076 ± 0.062. For K37T, the abundance fitness was 0.051 ± 0.064. On to M31L, for which the abundance fitness was -0.009 ± 0.042. For the variant A57G, the abundance fitness was -0.126 ± 0.037. Take G44V: the abundance fitness is -0.353 ± 0.078. As for P10E, the abundance fitness was -0.237 ± 0.076. For E73L, the abundance fitness is -0.004 ± 0.19. The same measure, in the same setting: the figure for I52T is -0.739 ± 0.15; for I38A it is -0.672 ± 0.07; for S58F it is -0.149 ± 0.14.

For R69V, the abundance fitness is -0.479 ± 0.14. In the case of C16V, the abundance fitness is -0.083 ± 0.049. Take C16A: the abundance fitness worked out at 0.059 ± 0.049. Take A62W: the abundance fitness was -0.882 ± 0.31. On the same count and under the same terms, for S32D the value was -0.965 ± 0.19; for S46M, -0.139 ± 0.054; for E43C, -0.168 ± 0.083. As to S60Y, the abundance fitness is -0.298 ± 0.11.

As for N24C, the abundance fitness is -0.196 ± 0.077.

Turning to N24G, the abundance fitness was -0.04 ± 0.037.

On to T4M, for which the abundance fitness is -0.189 ± 0.073.

For the variant T4F, the abundance fitness was -0.182 ± 0.14. Same read-out and setting: for V50D the value was -0.796 ± 0.25. On to V50H, for which the abundance fitness was -0.596 ± 0.35. For the variant I36F, the abundance fitness is -0.5 ± 0.21.

For the variant G15Y, the abundance fitness is -0.046 ± 0.097. In the case of I9Y, the abundance fitness is -0.567 ± 0.17. With Q63H, the abundance fitness was -0.124 ± 0.23. In the case of Q63W, the abundance fitness is -0.28 ± 0.082. With Q63G, the abundance fitness was -0.264 ± 0.058. As for I18E, the abundance fitness was -0.118 ± 0.068. For the variant S55T, the abundance fitness was determined as 0.001 ± 0.047.

N12F: the abundance fitness is -0.459 ± 0.23. Turning to T8S, the abundance fitness is -0.074 ± 0.066. On the same count and under the same terms, the figure for E6I is 0.116 ± 0.18.

For the variant E6V, the abundance fitness stood at 0.135 ± 0.044.

In the case of E6K, the abundance fitness is 0.113 ± 0.068. On to L7H, for which the abundance fitness is -0.744 ± 0.2.

On to L7R, for which the abundance fitness was -0.354 ± 0.051. With I66G, the abundance fitness is -0.594 ± 0.13. As to I66V, the abundance fitness is -0.285 ± 0.1. G47F: the abundance fitness is -0.116 ± 0.096.

With G47P, the abundance fitness was -0.491 ± 0.075. Q49N: the abundance fitness is -0.054 ± 0.058. G19P: the abundance fitness is -0.423 ± 0.1. Turning to Q2G, the abundance fitness turned out to be 0.031 ± 0.035. For I59E, the abundance fitness is -0.626 ± 0.081. Turning to L13D, the abundance fitness is -0.012 ± 0.089. Still for that read-out and setting: the figure for A34C is -0.462 ± 0.18; for E27K it is 0.021 ± 0.065.

Consider L65E, for which the abundance fitness is -0.191 ± 0.08. In the case of L61R, the abundance fitness came out at 0.253 ± 0.033. With L61Q, the abundance fitness came out at 0.111 ± 0.044. On to T51I, for which the abundance fitness is -0.107 ± 0.11. As for T51N, the abundance fitness was -0.427 ± 0.23.
